Measurements from the supplement of paper PMC9732359.
± gives the uncertainty stated by the source.

Assay: protein stability index of a GFP-peptide fusion (yeast GPS) (PSI 1-4); higher = more stable; sorted into four equal gates, so the index is relative within each strain
Summary of the method: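 Sequencing reads from sorted gates were used to score each peptide. The library consisted of tiled 17-residue yeast protein peptides fused downstream of GFP on a Cherry-expressing plasmid, pooled and carried in yeast. Mid-log cultures in leucine-free medium were split into four equal gates by GFP/Cherry ratio, and each gate's plasmids were PCR-amplified and Illumina-sequenced. The protein stability index adds up, over all gates, the read frequency multiplied by the gate number.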

Sequence	protein stability index (doa10∆)	protein stability index (pdr5∆)	protein stability index (san1∆)	protein stability index (ubr1∆)
SNVNSDIYFKLKKLEKE [RPT3]	3.22 ± 0.09	2.73 ± 0.09	2.93 ± 0.086	3.03 ± 0.072
GRPRYDTFGEGIIITDQ [BRR2]	3.02 ± 0.15	2.85 ± 0.14	2.62 ± 0.14	3.11 ± 0.11
ATQVKTDNTVDKFDFYK [RPT3]	3.29 ± 0.12	2.98 ± 0.11	3.26 ± 0.095	3.09 ± 0.099
FKAIHGSQLRLSEWEEY [YCS4]	1.27 ± 0.058	1.58 ± 0.05	2 ± 0.12	1.29 ± 0.029
TLELESFLEGSKALNSI [RGR1]	2.54 ± 0.066	2.16 ± 0.067	3.13 ± 0.066	2.9 ± 0.078
PYFEQKIQETELKIRSK [RPT6]	2.71 ± 0.12	2.84 ± 0.1	2.96 ± 0.13	3.04 ± 0.088
AGIKTRKFVFNPPKPRK [CYT1]	3.06 ± 0.06	3.19 ± 0.074	3.03 ± 0.06	3.07 ± 0.063
VYYSKRGFKVGLVCADT [SRP54]	2.41 ± 0.12	2.29 ± 0.073	2.19 ± 0.098	2.5 ± 0.054
SFGKIYVTKPMVNESDG [RPB2]	3.12 ± 0.19	3.18 ± 0.14	3.01 ± 0.2	3.26 ± 0.24
YKQAMNETSEQLVPIRL [SNF5]	3.23 ± 0.16	3.12 ± 0.15	3.08 ± 0.22	3.43 ± 0.12
DNGESAFRTLRLARSEK [RPL13A]	3.39 ± 0.24	3.51 ± 0.15	–	3.31 ± 0.084
SASVRALIENWAADSVS [FAS1]	2.46 ± 0.078	2.48 ± 0.094	2.59 ± 0.097	2.76 ± 0.091
PNSERSGTPTLKKNIEP [YOR098C/NUP1]	3.32 ± 0.14	3.26 ± 0.097	2.72 ± 0.24	3.07 ± 0.082
QNVNVPSAFNFTGNNST [YOR098C/NUP1]	2.56 ± 0.049	2.89 ± 0.06	2.77 ± 0.037	2.84 ± 0.053
IKKFAKLHMGTDDVRLA [RPL31A]	1.7 ± 0.037	1.32 ± 0.042	1.24 ± 0.064	1.58 ± 0.037
PLHSGKTSLMDLLVIDS [SNU114]	2.48 ± 0.068	2.75 ± 0.085	2.81 ± 0.1	2.47 ± 0.048
DHFLSMCQNPMQKPVPF [FAS1]	2.93 ± 0.18	3.01 ± 0.14	–	2.42 ± 0.081
ADVSIKSILQEIRRSLS [POP5]	1.59 ± 0.08	2.66 ± 0.083	2.44 ± 0.14	1.32 ± 0.06
IFKDLVTVFLFMLILAL [COB]	1.45 ± 0.04	1.19 ± 0.033	1.12 ± 0.067	1.17 ± 0.025
TLKLRARQRGKLKKSEE [SRP68]	3.44 ± 0.15	3.27 ± 0.11	3.36 ± 0.067	3.67 ± 0.21
GTGKPEAIHDMFTYSQE [RPN2]	2.8 ± 0.16	–	3.12 ± 0.071	2.72 ± 0.11
RMFEKNVMLNIYPRTVI [SKI6]	2.21 ± 0.14	1.37 ± 0.11	1.06 ± 0.27	2.24 ± 0.094
FANNLKSAISNNFRESD [SIR4]	2.55 ± 0.053	2.59 ± 0.048	2.56 ± 0.044	2.41 ± 0.042
CTNLTNRTLYELADLPK [GRR1]	2.93 ± 0.058	3.05 ± 0.048	2.92 ± 0.036	3.1 ± 0.046
LGKRINSAVNNAISNTQ [SRP54]	2.46 ± 0.099	3.19 ± 0.12	2.91 ± 0.096	3.12 ± 0.097

Sequence	protein stability index (doa10∆)	protein stability index (pdr5∆)	protein stability index (san1∆)	protein stability index (ubr1∆)
VKKVQLGKKGVPYVVTH [RPS4A]	1.77 ± 0.098	2.07 ± 0.13	3.06 ± 0.064	2.04 ± 0.071
FPLCVHLVSNELEQLSS [RPL10]	2.7 ± 0.079	2.71 ± 0.065	2.52 ± 0.089	2.44 ± 0.049
SGTPITQTESKKEENET [SNF2]	2.77 ± 0.052	2.59 ± 0.045	2.94 ± 0.046	2.82 ± 0.036
GLSKEDDVRDFVIRREV [RPS6A]	3.42 ± 0.094	3.42 ± 0.081	3.13 ± 0.13	3.68 ± 0.15
SREAVRHFGMGPHKGKA [RPL18A]	3.22 ± 0.19	2.8 ± 0.12	3.04 ± 0.098	3.66 ± 0.16
GLFGNKPNNTANTGGGL [YGL172W/NUP49]	3.66 ± 0.17	3.65 ± 0.13	3.49 ± 0.062	3.56 ± 0.11
GGRYVYPVHEAHKGQIV [SNU114]	1.58 ± 0.12	2.97 ± 0.11	3.01 ± 0.054	2.89 ± 0.063
LNLFSNVLKAPFIKSES [SIR4]	1.67 ± 0.061	1.75 ± 0.087	1.26 ± 0.13	1.79 ± 0.056
SALWSSRKGIAFGLGAI [ECM29]	2.59 ± 0.13	2.89 ± 0.094	2.2 ± 0.13	2.55 ± 0.089
RIAVLHQKTKTLASLSI [YGL172W/NUP49]	2.31 ± 0.081	2.25 ± 0.062	2.26 ± 0.07	2.75 ± 0.066
PDDDKIVPLTEGDIQVL [RPT1]	3.21 ± 0.097	3.22 ± 0.1	2.7 ± 0.07	3.01 ± 0.052
QIFVRGSQIKFIVVPDL [SMD3]	1.8 ± 0.071	2.35 ± 0.06	2.05 ± 0.064	2.02 ± 0.066
AYELRTKSKEQLASQLV [RPL35A]	3.02 ± 0.11	3.29 ± 0.091	2.93 ± 0.067	3.15 ± 0.13
VIVTDPRLDAQAIKEAS [RPS0B]	3.03 ± 0.096	3.1 ± 0.083	2.88 ± 0.072	2.9 ± 0.075
QISLNRLIDSMKQYSYL [RRI1]	2.43 ± 0.23	2.29 ± 0.16	2.48 ± 0.17	3.11 ± 0.12
IYNKMIGVLNNSSESDE [RPN13]	2.74 ± 0.14	3.12 ± 0.12	2.94 ± 0.06	2.94 ± 0.067
LPDPILKNFLSYESLKK [MCD1]	3 ± 0.094	3.14 ± 0.091	3.34 ± 0.046	3.37 ± 0.058
QWSIEIVLLDDEGKEIP [TAF14]	1.99 ± 0.06	2.1 ± 0.06	2.71 ± 0.066	2.75 ± 0.068
EKVTIAPLVLLSALDHY [RPN8]	1.62 ± 0.033	1.63 ± 0.031	1.42 ± 0.06	1.48 ± 0.029
IYRYKYKVMHQIRACKD [PRP8]	2.56 ± 0.099	2.14 ± 0.086	2.45 ± 0.078	1.99 ± 0.088
NGNDESSEYETINISLS [NUT1]	3.16 ± 0.12	3.32 ± 0.2	3.06 ± 0.12	3.58 ± 0.25
ANETDKRPTPPSFTFGG [YOR098C/NUP1]	3.01 ± 0.042	3.18 ± 0.047	2.96 ± 0.037	3.1 ± 0.033
SVPEGTIVSNVEEKPGD [RPL2A]	3.23 ± 0.1	3.02 ± 0.082	3.39 ± 0.059	3.39 ± 0.11
DVKLLNPIDIKRRFGEL [RPP1]	2.46 ± 0.089	2.7 ± 0.078	2.38 ± 0.14	2.97 ± 0.047
NSSKPAFSFGAKSNEDK [YJL041W/NSP1]	3.19 ± 0.1	3.13 ± 0.056	3.32 ± 0.077	3.33 ± 0.068
